In the supplement of paper PMC9170038:

System: MS2 coat protein
Assay: apparent KD of MS2 coat protein; designed switch direction (-1 OFF switch, 1 ON switch): -1; higher = weaker reporter binding
How it was run: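 The reported apparent KD is a per-design median over clusters, from curve fits of normalised cluster fluorescence. Protein titrations used SNAP-549-labelled MS2 coat protein, doubled from 0.7 or 1.5 nM to 3 µM, in Tris-HCl pH 7.5 buffer with KCl, MgCl2, BSA, DTT, tRNA and Tween-20, with no input, 200 uM small-molecule ligand, or an oligonucleotide input. The RNA switches were transcribed on Illumina chips by stalled E. coli RNA polymerase.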

[1] = input ligand: microRNA oligo, concentration not stated
[2] = Eterna round: R95, input ligand: microRNA oligo, concentration not stated

Row | Sequence | apparent KD of MS2 coat protein [1] | apparent KD of MS2 coat protein (input ligand: FMN 200 uM) | apparent KD of MS2 coat protein (input ligand: none) | other results
1 | AGCUGUGGCCGAGGAUAUCUGAAACUCAAAACCGAAAUAUAAUCGGACAUGAGGAUCACCCAUGUAGAGAAGGCGGUCUCAGCA [Eli eng2 - 079] (Eterna round: R96, puzzle: Exclusion NG 2) | 126 nM |  |  | 
2 | GGGUAGUGAGGAUAUCUUGGCAAACCCGAACCUGUCAGCCAAGAGAAGGCACUUGAGGAUCACCCAAGUACAGG [Raeratti] (Eterna round: R97, puzzle: Exclusion 4) |  | 88.7 nM | 26.8 nM | 
3 | GUCAGCUCGUCAGGAUAUACAUGCGUGCUUCGGCACGAAUUUAAGAUCACAUGAGGAUCACCCAUGUAGAAGGGACGAGCUGAC [ENG2/3-B1] (Eterna round: R96, puzzle: Exclusion NG 2) | 515 nM | 741 nM | 534 nM | 
4 | CCCUUUCAGGCAGGAUAUGUUCAUUUGUGAAUGGUGCCUACCUCACAUGAGGAUCACCCAUGUGGACAGAAGGGCCGGUGAAAA [Eternabot solution 26] (Eterna round: R96, puzzle: Exclusion NG 2) | 25.5 nM | 120 nM | 25.7 nM | 
5 | CUUUUGUGAGGAUAUUAGUAGUAAAUAAUUAAAAUUACUACUGAGAAGGCACAUGAGGAUCACCCAUGUUCCUC [salish99_ex4_r3_056] (Eterna round: R96, puzzle: Exclusion 4) | 33.2 nM | 489 nM | 37.4 nM | 
6 | CCAAGCUUUUUCCUUAACAACAUGAGGAUCACCCAUGUGUAAGCUAUUCGGUUUGGGCUCUUUAGUGCUCGUCUUAU [malcom mod] (Eterna round: R97, puzzle: Sensor, turn-off variant 1) |  | 19.2 nM | 19.7 nM | 
7 | GUACUGAGGCUUUGCUUUAGUCGUACAUGAGGAUCACCCAUGUAGGAUAUGGUAGGCUUUGCUUACCAGAAGGACAGAGUGAUC [JL EXNG3 1.22] (Eterna round: R96, puzzle: Exclusion NG 3) | 188 nM |  |  | 
8 | CUGAGCUGAGGAUAUACAUGAGGAUCACCCAUGUAAAGCAGCUUGCGUACAGGCAGAUGUAGAAGGCAGUUCGG [Mod of JL 16 - Jieux - Exclusion 3] (Eterna round: R97, puzzle: Exclusion 3) |  | 37.4 nM | 18.1 nM | 
9 | UAAGAUUACCGAGGAUAUGGUGGUUUCUAUUAACCAGAAGGCGGACUCAACAUGAGGAUCACCCAUGUAUAAAGGGUAUUAGAU [Ex NG1 #8] (Eterna round: R96, puzzle: Exclusion NG 1) | 112 nM | 134 nM | 144 nM | 
10 | GUGCAAUGAGGAUAUACGUUGGUGAACAUCUGUGUGCUCCUACAUGAGGAUCACCCAUGUAGAAGGCAUGUCAC [LRO-Excl2-18] (Eterna round: R96, puzzle: Exclusion 2) | 10.8 nM | 18.3 nM | 14.1 nM | 
11 | CUCUUGUCAGGAUAUCAACGCCGCCCACACGGGCGGCGAAAUGAGAAGGGACAUGAGGAUCACCCAUGUUAAAA [Orsoesarqu] (puzzle: Exclusion 4) |  |  |  | apparent KD of MS2 coat protein (Eterna round: R95, input ligand: FMN 200 uM): 20.3 nM; apparent KD of MS2 coat protein [2]: 133 nM; apparent KD of MS2 coat protein (Eterna round: R95, input ligand: none): 212 nM
12 | GCAGAAAGUGUAGGAUAUAGAAAUUAGCGGAAACGCAAUACAUGAGGAUCACCCAUGUUUCCUCACUAGAAGGGCAAAAGCUGC [EXNG2 V2 f] (Eterna round: R96, puzzle: Exclusion NG 2) | 12.8 nM |  |  | 
13 | UCUUAUUGCAAGGAUAUGCAAUUUAUUUUUUAUGCAGAAGGUGCAACAUGAGGAUCACCCAUGUUUCCGGGCAU [JR_E6_Sub037] (puzzle: Exclusion 6) |  |  |  | apparent KD of MS2 coat protein [2]: 13.5 nM
14 | CCGAACUCAGGAUAUGCAUGUAUAACAGAGAGAUCCACUAAACAUGAGGAUCACCCAUGUAGAAGGGAGUCGGG [Eternabot (L1) Solution 14] (Eterna round: R97, puzzle: Exclusion 2) |  | 887 nM | 365 nM | 
15 | AUUUUGUCAGGAUAUGAGUAGUAGGACGAAAGUGUUAUUAUUUAGAAGGGACAUGAGGAUCACCCAUGUUCCUC [Bring Us a Shrubbery-03] (puzzle: Exclusion 4) |  |  |  | apparent KD of MS2 coat protein [2]: 12.1 nM
16 | GGCGCCUCAGGAUAUCAGUCUGGAUCAGAAAAGAUCCUGACUGAGAAGGGACAUGAGGAUCACCCAUGUUCGCC [Mat - Exclusion 4 - Eli Mod - D52] (Eterna round: R97, puzzle: Exclusion 4) |  | 17.3 nM | 18.4 nM | 
17 | GAAAAGCAUGUGAGGAUAUGCACACCGGACCGGUGGUAGAAGGCACAUGAGGAUCACCCAUGUGACCAAGAAUA [BmEX4 A.4] (Eterna round: R97, puzzle: Brourd's mod of Exclusion 4) |  | 19.7 nM | 10.6 nM | 
